Test results as given in article PMC9482650, “Quantitative fragmentomics allow affinity mapping of interactomes” (Nature Communications, 2022).

What was measured:
Experiment in all cases: holdup assay
Set-up in all cases: key: below the threshold = too weak to quantify, mostly under pKd 3.1 to 4
[1] = target: T1, DFNB31_3, Q9P202
T1 sequence (Q9P202 811-907, limits assumed, looked up): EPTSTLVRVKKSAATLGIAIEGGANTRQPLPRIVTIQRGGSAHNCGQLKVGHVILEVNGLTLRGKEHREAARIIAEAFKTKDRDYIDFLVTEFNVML

[2] = target: GRIP2_7, Q9C0E4
Sequence of GRIP2_7, Q9C0E4 (Q9C0E4 934-1023): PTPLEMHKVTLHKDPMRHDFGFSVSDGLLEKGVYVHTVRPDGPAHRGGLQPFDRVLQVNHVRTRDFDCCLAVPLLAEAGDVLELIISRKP

[3] = target: T2, TX1BP3, O14907
T2 sequence (O14907 10-122, limits assumed, looked up): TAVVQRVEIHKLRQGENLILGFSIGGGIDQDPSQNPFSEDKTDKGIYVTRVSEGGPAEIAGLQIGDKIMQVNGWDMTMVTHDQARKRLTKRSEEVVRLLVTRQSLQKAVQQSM

[4] = target: T3, LRRC7, Q96NW7
T3 sequence (Q96NW7 1440-1537, limits assumed, looked up): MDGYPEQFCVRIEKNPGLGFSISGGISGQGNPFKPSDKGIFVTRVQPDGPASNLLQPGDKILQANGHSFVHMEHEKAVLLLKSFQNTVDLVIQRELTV

[5] = target: MAGI2_2, Q86UL8
Sequence of MAGI2_2, Q86UL8 (Q86UL8 410-522): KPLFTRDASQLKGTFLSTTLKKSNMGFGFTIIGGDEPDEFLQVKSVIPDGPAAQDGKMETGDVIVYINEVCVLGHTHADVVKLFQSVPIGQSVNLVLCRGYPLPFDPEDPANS

[6] = target: T4, TJP3_3, O95049
T4 sequence (O95049 375-456, limits assumed, looked up): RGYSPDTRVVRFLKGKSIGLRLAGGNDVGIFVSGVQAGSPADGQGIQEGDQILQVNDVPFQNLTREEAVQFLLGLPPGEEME

[7] = target: T5, DLG3_2, Q92796
T5 sequence (Q92796 221-321, limits assumed, looked up): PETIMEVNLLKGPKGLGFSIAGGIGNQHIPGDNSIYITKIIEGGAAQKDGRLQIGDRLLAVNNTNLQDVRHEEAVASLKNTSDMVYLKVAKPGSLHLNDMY

[8] = target: AHNAK1, Q09666
Sequence of AHNAK1, Q09666 (Q09666 4-100): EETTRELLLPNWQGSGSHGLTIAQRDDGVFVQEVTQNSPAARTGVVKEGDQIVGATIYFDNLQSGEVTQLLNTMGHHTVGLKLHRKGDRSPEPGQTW

[9] = target: T6, PCLO, Q9Y6V0
T6 sequence (Q9Y6V0 4491-4600, limits assumed, looked up): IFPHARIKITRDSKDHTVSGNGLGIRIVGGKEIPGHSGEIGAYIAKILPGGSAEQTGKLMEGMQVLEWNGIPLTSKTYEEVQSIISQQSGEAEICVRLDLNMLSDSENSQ

[10] = target: T7, HTRA3, P83110
T7 sequence (P83110 354-453, limits assumed, looked up): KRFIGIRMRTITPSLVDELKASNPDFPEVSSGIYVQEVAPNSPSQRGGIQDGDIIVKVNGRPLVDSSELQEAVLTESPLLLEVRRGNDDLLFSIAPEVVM

[11] = target: T8, ARHGEF11, O15085
T8 sequence (O15085 42-136, limits assumed, looked up): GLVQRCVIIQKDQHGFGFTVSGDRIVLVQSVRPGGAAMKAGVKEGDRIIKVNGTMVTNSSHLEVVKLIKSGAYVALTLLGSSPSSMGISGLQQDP

[12] = target: T9, ARHGAP21, Q5T5U3
T9 sequence (Q5T5U3 45-169, limits assumed, looked up): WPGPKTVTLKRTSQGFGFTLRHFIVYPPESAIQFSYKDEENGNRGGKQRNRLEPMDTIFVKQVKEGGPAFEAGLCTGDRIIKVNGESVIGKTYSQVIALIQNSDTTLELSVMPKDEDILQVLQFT

[13] = target: ARHGEF12, Q9NZN5-2
Sequence of ARHGEF12, Q9NZN5-2 (Q9NZN5 other isoform, or with tags, fused parts or gaps): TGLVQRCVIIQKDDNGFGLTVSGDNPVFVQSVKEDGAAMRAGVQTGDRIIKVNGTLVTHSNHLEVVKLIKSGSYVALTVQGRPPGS

[14] = target: GRIP2_3, Q9C0E4
Sequence of GRIP2_3, Q9C0E4 (Q9C0E4 238-339): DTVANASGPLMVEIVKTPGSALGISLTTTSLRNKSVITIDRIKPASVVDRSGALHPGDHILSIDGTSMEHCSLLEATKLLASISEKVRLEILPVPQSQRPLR

[15] = target: MAGI2_5, Q86UL8
Sequence of MAGI2_5, Q86UL8 (Q86UL8 915-1017): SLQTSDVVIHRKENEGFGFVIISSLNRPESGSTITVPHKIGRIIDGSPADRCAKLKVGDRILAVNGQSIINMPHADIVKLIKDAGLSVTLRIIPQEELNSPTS

[16] = target: T10, DFNB31_1, Q9P202
T10 sequence (Q9P202 135-233, limits assumed, looked up): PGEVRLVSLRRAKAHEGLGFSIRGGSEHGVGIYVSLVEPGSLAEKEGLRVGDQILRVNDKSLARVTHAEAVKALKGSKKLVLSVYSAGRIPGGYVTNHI

[17] = target: T11, SYNJ2BP, P57105
T11 sequence (P57105 8-110, limits assumed, looked up): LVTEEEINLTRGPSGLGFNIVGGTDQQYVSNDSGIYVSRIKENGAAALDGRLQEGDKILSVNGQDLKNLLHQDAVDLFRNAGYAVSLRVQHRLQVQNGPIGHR

[18] = target: GRIP2_6, Q9C0E4
Sequence of GRIP2_6, Q9C0E4 (Q9C0E4 648-740): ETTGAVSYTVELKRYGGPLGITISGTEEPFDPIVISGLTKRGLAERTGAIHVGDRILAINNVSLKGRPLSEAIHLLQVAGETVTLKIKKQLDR

[19] = target: GORASP1, Q9BQQ3
Sequence of GORASP1, Q9BQQ3 (Q9BQQ3 1-208): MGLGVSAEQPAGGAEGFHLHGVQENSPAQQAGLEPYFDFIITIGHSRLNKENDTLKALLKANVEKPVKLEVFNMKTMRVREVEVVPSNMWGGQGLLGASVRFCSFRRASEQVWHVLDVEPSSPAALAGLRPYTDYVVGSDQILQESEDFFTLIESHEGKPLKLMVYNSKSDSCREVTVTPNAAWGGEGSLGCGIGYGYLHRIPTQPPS

[20] = target: T12, APBA2_2, Q99767
T12 sequence (Q99767 654-744, limits assumed, looked up): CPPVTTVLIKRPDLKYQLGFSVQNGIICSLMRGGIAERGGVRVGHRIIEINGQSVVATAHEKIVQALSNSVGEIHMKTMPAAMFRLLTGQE

[21] = target: T13, DFNB31_2, Q9P202
T13 sequence (Q9P202 274-371, limits assumed, looked up): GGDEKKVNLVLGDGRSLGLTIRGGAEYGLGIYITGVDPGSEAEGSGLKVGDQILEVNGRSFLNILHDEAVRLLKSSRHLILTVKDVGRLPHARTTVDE

[22] = target: GIPC2, Q8TF65
Sequence of GIPC2, Q8TF65 (Q8TF65 112-203): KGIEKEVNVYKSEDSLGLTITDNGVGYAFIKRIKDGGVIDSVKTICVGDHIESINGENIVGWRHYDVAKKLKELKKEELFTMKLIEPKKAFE

[23] = target: DLG1_2, Q12959
Sequence of DLG1_2, Q12959 (Q12959 314-412): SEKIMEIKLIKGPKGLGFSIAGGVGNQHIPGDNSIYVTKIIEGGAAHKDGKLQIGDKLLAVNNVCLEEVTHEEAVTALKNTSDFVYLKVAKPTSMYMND

[24] = plain residues with an end cap or a label only (N-terminal biotin on a linker: ahx)
[25] = plain residues with an end cap or a label only (N-terminal biotin on a linker: ttds)

In the case of YNSFLSVTTV [PDZRN3, Q9UPQ7], the pKd [1, 24] is reported as 3.51, the pKd [2, 24] is reported as “below the threshold” and the pKd [3, 24] is reported as “below the threshold”. The pKd [4, 24] was “below the threshold”, the pKd [5, 24] was 3.95 and the pKd [6, 24] was “below the threshold”. For the same binder, the pKd [7, 24] was 4.27, the pKd [8, 24] was 3.53 and the pKd [9, 24] was “below the threshold”. For the same binder, the pKd [10, 24] was “below the threshold”, the pKd [11, 24] was 4.06 and the pKd [12, 24] was “below the threshold”. For the same binder, the pKd [13, 24] was 4.25, the pKd [14, 24] was “below the threshold” and the pKd [15, 24] was 3.9. The pKd [16, 24] was “below the threshold”, the pKd [17, 24] was “below the threshold” and the pKd [18, 24] was “below the threshold”. For the same binder, the pKd [19, 24] was 3.8, the pKd [20, 24] was “below the threshold” and the pKd [21, 24] was “below the threshold”. For the same binder, the pKd [22, 24] was “below the threshold” and the pKd [23, 24] was 4.19.

SRSRRRETAL [HPV33-E6, P06427] was tested, and the pKd [1, 25] was “below the threshold”, the pKd [2, 25] was 3.42 and the pKd [3, 25] was 5.07. The pKd [4, 25] was 3.68, the pKd [5, 25] was 5.31 and the pKd [6, 25] was “below the threshold”. The pKd [7, 25] was 4.61, the pKd [8, 25] was 3.62 and the pKd [9, 25] was “below the threshold”. The pKd [10, 25] was “below the threshold”, the pKd [11, 25] was 4.25 and the pKd [12, 25] was 3.45. For the same binder, the pKd [13, 25] was 4.78, the pKd [14, 25] was “below the threshold” and the pKd [15, 25] was “below the threshold”. The pKd [16, 25] was 3.77, the pKd [17, 25] was 5.3 and the pKd [18, 25] was “below the threshold”. The pKd [19, 25] was “below the threshold”, the pKd [20, 25] was “below the threshold” and the pKd [21, 25] was 3.55. For the same binder, the pKd [22, 25] was “below the threshold” and the pKd [23, 25] was 5.14.

FVETQHQTQV [FAT3, Q8TDW7] was tested, and the pKd [1, 25] was “below the threshold”, the pKd [2, 25] was 3.82 and the pKd [3, 25] was 4. The pKd [4, 25] was “below the threshold”, the pKd [5, 25] was 4.02 and the pKd [6, 25] was “below the threshold”. For the same binder, the pKd [7, 25] was 4.71, the pKd [8, 25] was 3.52 and the pKd [9, 25] was “below the threshold”. For the same binder, the pKd [10, 25] was “below the threshold”, the pKd [11, 25] was 4.22 and the pKd [12, 25] was “below the threshold”. The pKd [13, 25] was 3.88, the pKd [14, 25] was “below the threshold” and the pKd [15, 25] was 4.72. For the same binder, the pKd [16, 25] was 3.48, the pKd [17, 25] was 4.08 and the pKd [18, 25] was “below the threshold”. The pKd [19, 25] was “below the threshold”, the pKd [20, 25] was “below the threshold” and the pKd [21, 25] was “below the threshold”. It also gave a pKd [22, 25] of 3.66 and a pKd [23, 25] of 4.95.
